Target: human Cul3 N-terminal domain (NTD, residues M1-L388) with the engineered mutations I342R and L346D (human, UniProt Q13618 1-388, I342R | L346D)
Assay: ITC

Sequence of human Cul3 N-terminal domain (NTD, residues M1-L388) with the engineered mutations I342R and L346D (Q13618 1-388 I342R/L346D): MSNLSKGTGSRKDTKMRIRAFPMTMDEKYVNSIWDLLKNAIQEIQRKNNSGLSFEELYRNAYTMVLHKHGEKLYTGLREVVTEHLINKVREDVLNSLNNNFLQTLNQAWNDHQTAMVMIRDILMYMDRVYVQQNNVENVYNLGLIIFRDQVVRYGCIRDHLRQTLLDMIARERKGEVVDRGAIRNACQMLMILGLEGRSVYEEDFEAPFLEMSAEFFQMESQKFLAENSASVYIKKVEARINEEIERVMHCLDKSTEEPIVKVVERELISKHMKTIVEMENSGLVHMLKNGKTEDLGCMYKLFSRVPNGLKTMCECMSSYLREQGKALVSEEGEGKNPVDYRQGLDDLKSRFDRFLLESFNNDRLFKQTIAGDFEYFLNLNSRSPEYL

- Kd: 12 nM
B1: KCTD17 BTB + CTD multi-domain construct (residues G20-Q220), tag cleaved (domain or fragment)
chain: SMGAGGRAAGGWGKWVRLNVGGTVFLTTRQTLCREQKSFLSRLCQGEELQSDRDETGAYLIDRDPTYFGPILNFLRHGKLVLDKDMAEEGVLEEAEFYNIGPLIRIIKDRMEEKDYTVTQVPPKHVYRVLQCQEEELTQMVSTMSDGWRFEQLVNIGSSYNYGSEDQAEFLCVVSKELHSTPNGLSSESSRKTKSTEEQLEEQ

From publication PMC5664961 (2017)
